Assay results published in patent publication US20100098709A1 (AstraZeneca / MedImmune, published 2010).

T1: FLAG HIS tagged soluble IL-6Ra (human, UniProt P08887 20-358, limits assumed)
T1 construct: the key was followed; also called HIS FLAG sIL-6R; FLAG-sIL-6R
T1 sequence: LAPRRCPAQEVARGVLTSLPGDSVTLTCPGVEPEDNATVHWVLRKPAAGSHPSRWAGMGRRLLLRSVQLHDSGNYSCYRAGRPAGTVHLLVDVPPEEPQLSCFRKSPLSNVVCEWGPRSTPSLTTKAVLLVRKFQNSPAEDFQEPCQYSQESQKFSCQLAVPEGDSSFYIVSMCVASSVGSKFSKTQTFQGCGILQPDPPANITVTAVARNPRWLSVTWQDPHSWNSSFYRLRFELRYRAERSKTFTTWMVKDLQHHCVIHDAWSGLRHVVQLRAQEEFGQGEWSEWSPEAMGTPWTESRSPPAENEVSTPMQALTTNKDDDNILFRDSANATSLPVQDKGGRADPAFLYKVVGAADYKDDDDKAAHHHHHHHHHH


Assays:
[1] = target: T1, FLAG HIS tagged soluble IL-6Ra; assay: phage ELISA
[2] = target: T1, FLAG HIS tagged soluble IL-6Ra; assay: phage ELISA, antigen on anti-FLAG plate
[3] = target: T2, biotinylated anti-FLAG monoclonal antibody (Sigma F9291); assay: phage ELISA, anti-FLAG treated plate alone
T2 construct: Control coat of the phage ELISA plates (streptavidin plate treated with the anti-FLAG antibody, then MPBS only); also called anti FLAG antibody treated plates alone

[4] = target: T1, FLAG HIS tagged soluble IL-6Ra; assay: ELISA and HTRF soluble binding assay, IgG
[5] = target: T1, FLAG HIS tagged soluble IL-6Ra; assay: ELISA, IgG captured by anti-human Fc, 50 nM protein
Description: (§1) Immunoassay plates were washed 3 times using PBST, then blocked by addition of 300 μl/well MPBS for 1 h at room temperature. After a second washing step 2 μg/ml of the anti-complex antibody in PBS was added to the plate at 50 μl/well. The plates were incubated for 1 h at room temperature before being washed again as previously described. FLAG-tagged reagents (IL-6, sIL-6R, Hyper Complexes) were diluted to 50 nM in MPBS. Complexes were made using 50 nM of the FLAG-tagged component and a 2-fold molar excess of the untagged component. Four-fold serial dilutions were prepared of each of the reagents, which were then added to duplicate wells of the immunoassay plates at 50 μl/well. Control wells containing 50 nM irrelevant protein (in this case his FLAG tagged murine GMCSF-R), or MPBS only were also prepared. The immunoassay plates were then incubated for 1 h at room temperature. After a further washing step, biotinylated anti-FLAG monoclonal antibody (Sigma) diluted to 1 μg/ml in MPBS was added to all wells at 50 μl/well. The plates were incubated for 1 h at room temperature before the plates were again washed as before. Europium labelled streptavidin (Perkin Elmer 1244-360) was diluted to 100 ng/ml in Delfia assay buffer (Perkin Elmer 4002-0010), added to all wells at 50 μl/well and incubated for 1 h at room temperature. The immunoassay plates were then washed 7 times in Delfia wash buffer, consisting of 0.05 M Tris buffered saline (NaCl-0.138 M, KCl-0.0027 M) Tween 20 (0.05%), pH 8.0 (at 25° C.). A 50 μl volume of Delfia enhancement solution (Perkin Elmer 4001-0010) was then added to all wells. The plates were incubated for 10 mins before the Time-resolved fluorescence was measured at 620 nm using an EnVision plate reader.

[6] = target: T1, FLAG HIS tagged soluble IL-6Ra; assay: HTRF soluble binding assay, 1 nM IgG, 20 nM HIS FLAG protein
Description: (§2) Purified IgG from positive clones identified from screening of crude periplasmic scFv and purified scFv, were tested in a HTRF® assay for binding to FLAG HIS tagged Hyper IL-6, FLAG HIS IL-6 and FLAG HIS sIL-6R.
(§3) Example data for binding of IgG of positive clones identified from screening of crude periplasmic scFv. Data shown in table 3 is expressed as % delta F at an IgG concentration of 1 nM (final assay concentration) and 20 nM of HIS FLAG protein (final assay concentration).

[7] = target: T3, HIS FLAG irrelevant ligand; assay: as above
T3 construct: Unnamed control of the HTRF soluble assay; also called irrelevant FLAG HIS ligand
Description: as §2, §3

[8] = target: T4, HIS FLAG irrelevant receptor; assay: as above
T4 construct: Unnamed control of the HTRF soluble assay; also called irrelevant FLAG HIS receptor
Description: as §2, §3

[9] = target: T5, HIS FLAG tagged human IL-6 (human, UniProt P05231 30-212); assay: ELISA and HTRF soluble binding assay, IgG
T5 construct: also called HIS FLAG IL-6; FLAG-IL-6

[10] = target: T5, HIS FLAG tagged human IL-6; assay: ELISA, IgG captured by anti-human Fc, 50 nM protein
Description: as §1

[11] = target: T6, Complex 1: HIS FLAG IL-6/sIL-6R (human, UniProt P05231 30-212; P08887 20-358, limits assumed); assay: as above
T6 construct: Non-covalent complex made by pre-incubating the two proteins; The untagged sIL-6R was bought; also called IL-6/sIL-6R complex consisting of FLAG tagged ligand and untagged receptor
Description: as §1

[12] = target: T7, Complex 2: IL-6/HIS FLAG sIL-6R (human, UniProt P05231 30-212; P08887 20-358, limits assumed); assay: as above
T7 construct: Non-covalent complex made by pre-incubating the two proteins; Untagged IL-6 was bought; also called IL-6/sIL-6R complex consisting of untagged ligand and FLAG tagged receptor
Description: as §1

[13] = target: T8, FLAG HIS tagged Hyper IL-6; assay: as above
T8 construct: also called HIS FLAG Hyper IL-6
Description: as §1

[14] = target: T5, HIS FLAG tagged human IL-6; assay: HTRF soluble binding assay, 1 nM IgG, 20 nM HIS FLAG protein
Description: as §2, §3

[15] = target: T8, FLAG HIS tagged Hyper IL-6; assay: as above
Description: as §2, §3

[16] = target: T8, FLAG HIS tagged Hyper IL-6; assay: HTRF, inhibition of Hyper IL-6 binding to biotinylated gp130 Fc; IgG
Description: Purified IgG from positive clones identified from screening of crude periplasmic scFv and purified scFv were tested in a HTRF® assay for inhibition of binding of FLAG HIS tagged Hyper IL-6 binding to biotinylated recombinant human gp130 Fc. This assay was performed as for purified scFv (Example 3) with the following modifications. 6 nM biotinylated human recombinant gp130 Fc (10 μl/well) was used to give a final concentration of 1 nM of gp130Fc.
Purified scFv were diluted 1:3 by transferring 15 μl of purified scFv to 30 μl assay buffer and mixing by pipetting in 96 well plate (Greiner 650201). Dilutions were carried out sequentially in duplicate a further 9 times. 3 nM GP130 Fc (10 μl/well) to give a final concentration of 0.5 nM, 6 nM Hyper IL-6 (10 μl/well) to give a final concentration of 1 nM and combined HTRF reagents 2.598 nM anti-flag IgG labelled with cryptate and 30 nM anti-human Fc antibody labelled with XL665 (10 μl/well) were added to 30 μl of purified scFv titration in 96 well plate. 40 μl was then transferred to a black 384 well optiplate. All dilutions were performed in assay buffer.

Binder | binding result [1] | Absorbance (450 nM) [2] | Absorbance (450 nM) [3] | binding result [4] | Europium Counts [5] [counts] | % delta F [6] [%] | % delta F [7] [%] | % delta F [8] [%] | further results
Antibody 4 scFv (scFv, V domains shown, also called Ab 4) VH: not shown VL: QAVLTQPSSVSGAPGQRVSISCTGSSSNIGAGYEVHWYQHLPGTAPKLLIYGNNNRPSGVPDRFSGSKSGTSASLAITGLQAEDEADYYCQSYDNNLPGSRVFGGGTKVTVLG | no binding | 0.167 | 0.053 |  |  |  |  |  | 
Antibody 4 IgG (antibody, V domains shown, also called Ab 4) VH: not shown VL: QAVLTQPSSVSGAPGQRVSISCTGSSSNIGAGYEVHWYQHLPGTAPKLLIYGNNNRPSGVPDRFSGSKSGTSASLAITGLQAEDEADYYCQSYDNNLPGSRVFGGGTKVTVLG |  |  |  | no binding | 2000 | 18 | 13 | 7 | 
Antibody 3 scFv (scFv, V domains shown, also called Ab 3) VH: not shown VL: QSVLTQPPSVSGAPGQRVNISCTGSSSNIGAGYDVHWYQQLPGTAPKLLIYGNNNRPSGVPDRFSGSKSGTSASLAITGLQAEDEADYYCQSYDSSLSGYVFGTGTKVTVLG | no binding | 0.056 | 0.049 |  |  |  |  |  | 
Antibody 5 IgG (antibody, V domains shown, also called Ab 5) VH: not shown VL: QSVLTQPPSVSGAPGQRVTISCTGSSSNIGAGYDVHWYQQLPGTAPKLLIYGNSNRPSGVPDRFSGSKSGTSASLAITGLQAEDEADYYCQSYDSSLSGWVFGGGTKVTVLG |  |  |  | no binding | 1500 | 9 | 1 | 3 | binding result [9]: no binding; Europium Counts [10]: 1730 counts; Europium Counts [11]: 120000 counts; Europium Counts [12]: 417000 counts; Europium Counts [13]: 383000 counts; % delta F [14]: 4%; % delta F [15]: 331%; IC50 [16]: 0.7 nM
Antibody 3 IgG (antibody, V domains shown, also called Ab 3) VH: not shown VL: QSVLTQPPSVSGAPGQRVNISCTGSSSNIGAGYDVHWYQQLPGTAPKLLIYGNNNRPSGVPDRFSGSKSGTSASLAITGLQAEDEADYYCQSYDSSLSGYVFGTGTKVTVLG |  |  |  | no binding | 1420 | 6 | 10 | 11 | 
Antibody 1 scFv (scFv, V domains shown, also called Ab 1) VH: not shown VL: SYVLTQPPSVSVAPGQTATITCGGNNIGLKSVHWYQQKPGQAPLLVVHDDSARPSGIPERFSGSNSGNTATLTISRVEAGDEADYSCQVWDNSGGLWVFGGGTKVTVLG | no binding | 0.059 | 0.052 |  |  |  |  |  | 
Antibody 1 IgG (antibody, V domains shown, also called Ab 1) VH: not shown VL: SYVLTQPPSVSVAPGQTATITCGGNNIGLKSVHWYQQKPGQAPLLVVHDDSARPSGIPERFSGSNSGNTATLTISRVEAGDEADYSCQVWDNSGGLWVFGGGTKVTVLG |  |  |  | no binding | 1340 | 4 | 8 | 11 | 
Antibody 2 scFv (scFv, V domains shown, also called Ab 2) VH: not shown VL: QAVLTQPSSVSGAPGQRVTISCAGSSSNIGAGYDVHWYQQVPGTAPKLLIYGDTNRPSGVPDRFSGSKFGTSASLTITGLQAEDEADYYCQSYDNSLSTSDWVFGGGTKVTVLG | no binding | 0.083 | 0.052 |  |  |  |  |  | 
Antibody 2 IgG (antibody, V domains shown, also called Ab 2) VH: not shown VL: QAVLTQPSSVSGAPGQRVTISCAGSSSNIGAGYDVHWYQQVPGTAPKLLIYGDTNRPSGVPDRFSGSKFGTSASLTITGLQAEDEADYYCQSYDNSLSTSDWVFGGGTKVTVLG |  |  |  | no binding | 2450 | 10 | 11 | 5 | 
